Measured values: PMC4370742, “Expression, purification, and characterization of galactose oxidase of Fusarium sambucinum in E. coli” (Protein Expression and Purification, 2015)

Columns and labels:
purified protein [1] = substrate: OC[C@H]1O[C@H](OC[C@H]2O[C@H](O[C@]3(CO)O[C@H](CO)[C@@H](O)[C@@H]3O)[C@H](O)[C@@H](O)[C@@H]2O)[C@H](O)[C@@H](O)[C@H]1O; test: purified protein; type: biochemical, Fusarium sambucinum; details: O2 at air saturation, 20 mM potassium phosphate pH 7.0, 30 °C, Cu-activated enzyme
purified protein [2] = substrate: CO[C@@H]1O[C@H](CO)[C@H](O)[C@H](O)[C@H]1O; test: purified protein; type: biochemical, Fusarium sambucinum; details: O2 at air saturation, 20 mM potassium phosphate pH 7.0, 30 °C, Cu-activated enzyme

B1: galactose oxidase (GalOx) of Fusarium sambucinum (Fusarium sambucinum) (protein)
chain: ASAPIGSAISRNNWAVTCDSAQPGNECNKAIDGNRDTFWHTFYGANGDPKPPHTYNIDMKTTQNVNGLSMLPRQDGSQNGWIGRHEVYLSSDGKTWGSPVATGSWFADSTTKYSNFETRPARYVRLVALAEANGQPWTSIAEINVYQASSYTAPQPGLGRWGPTIDLPIVPAAAAIEPTSGRVLMWSSYRNDAFGGSPGGVTLTSSWDPSSGIVSDRTVTVTKHDMFCPGISMDGNGQIVVTGGNDAKKTSLYDSPSDSWVPGPDMQVARGYQSSATMSDGRVFTIGGSWSGGIFEKNGEVYSPSSKTWTSLPNAKVNPMLTADKQGLYRSDNHAWLFGWKKGSVFQAGPSTAMNWYYTSGSGDVKSAGKRQSNRGVAPDAMCGNAVMYDAVQGKILTFGGSPDYQDSDATTNAHIITLGEPGSTPKTVFASNGLYFARTFHTSVVLPDGSTFITGGQRRGIPFEDSTPVLTPEIYVPEQDTFYKQNPNSIVRVYHSISLLLPDGRVFNGGGGLCGDCTTNHFDAQIFTPNYLYDSNGNLATRPKITRTSTQSVKVGGRVTISTDYSIRKASLIRYGTATHTVNTDQRRIPLTLMNNGGNSYSFQVPSDTGIALPGYWMLFVINSAGVPSVASTIRVTQ
notes: C-terminal His6 tag kept (pET21a NdeI/NotI); E. coli BL21(DE3); IMAC
Km (purified protein [1]): 20 ± 2.3 mM
Vmax (purified protein [1]): 43 µmol/min/mg
kcat (purified protein [1]): 49 s⁻¹
kcat/Km (purified protein [1]): 2500 M⁻¹ s⁻¹
Km (purified protein [2]): 39 ± 1.7 mM
Vmax (purified protein [2]): 67 µmol/min/mg
kcat (purified protein [2]): 77 s⁻¹
kcat/Km (purified protein [2]): 2000 M⁻¹ s⁻¹
